# Laboratory results from patent publication US9636415B2, “Bispecific molecule binding TLR9 and CD32 and comprising a T cell epitope for treatment of allergies” (S-TARget therapeutics GmbH, priority 2006, dated 2017).
# B1: warhead (conjugate)
# scFv: EVQLQQSGPELKKPGETVKISCKASGYTFTNYGMNWVKQAPGKGLKWMGWLNTYTGESIYPDDFKGRFAFSSETSASTAYLQINNLKNEDMATYFCARGDYGYDDPLDYWGQGTSVTVSSGGGGSGGGGSGGGGSDIVMTQAAPSVPVTPGESVSISCRSSKSLLHTNGNTYLHWFLQRPGQSPQLLIYRMSVLASGVPDRFSGSGSGTAFTLSISRVEAEDVGVFYCMQHLEYPLTFGAGTKLELKGSISAWSHPQFEKGPEVSALEKEVSALEKEVSALEKEVSALEKEVSALEK
# B2: ScFV-1-coil: ScFV derived from mAb IV.3 with pepE coil plus StrepTag II (SEQ ID 93) (protein)
# scFv: EVQLQQSGPELKKPGETVKISCKASGYTFTNYGMNWVKQAPGKGLKWMGWLNTYTGESIYPDDFKGRFAFSSETSASTAYLQINNLKNEDMATYFCARGDYGYDDPLDYWGQGTSVTVSSGGGGSGGGGSGGGGSDIVMTQAAPSVPVTPGESVSISCRSSKSLLHTNGNTYLHWFLQRPGQSPQLLIYRMSVLASGVPDRFSGSGSGTAFTLSISRVEAEDVGVFYCMQHLEYPLTFGAGTKLELKGSISAWSHPQFEKGPEVSALEKEVSALEKEVSALEKEVSALEKEVSALEK
# modifications: ScFV
# What was measured:
# [1] = system: PBMC; assay: IFN and IL-4 ELISA in pooled PBMC culture supernatants after immunization with SG100; type: in vivo, rhesus monkey; settings: positive control, data not shown; PBMC of SG100-immunized animals
# Procedure: 5 healthy house dust mite (HDM) naïve rhesus monkeys were immunized 3× with SG100 (100 μg/shot) absorbed on Alum) on d0, d14 and d28. Blood samples were taken on d0 and d49 for T cell activation and antibody production.
# Proliferation: PBMC ([…]) were cultured for 4 days (37° C./5% CO2/99% humidity) in 8 plex with medium, warhead (2 μg/ml), Immunogen (2 μg/ml), Der p1 (2 μg/ml), Der p2 (2 μg/ml), Der p5 (2 μg/ml) and Der p7 (2 μg/ml). As positive control Con A (Concanavaline A, Sigma) was used. Proliferation was measured by [3H]-thymidine (0.5 μCi/well) during the final 18 hrs of a 4 day culture. Cells were harvested for β-scintillation counting (Topcount NXT, Packerd, Ramsey, Minn., USA). Net counts per minutes were calculated by subtracting the counts of the medium control from the counts induced by the different antigens.
# From each well of the 8plex stimulations of the proliferation experiment, 50 μl supernatant was taken after 24 h and pooled. The pooled supernatants were tested for the presence of IFN and IL-4 using commercially available ELISA kits from U-Cytech, Utrecht The Netherlands).
# [2] = system: human pDCs; assay: IFNα production of pDCs after stimulation with CpG targeted to CD32, AT10 or ScFV from IV.3 (Example 9); type: cell-based; settings: CpG without targeting; p<0.04 resp. p<0.02
# Procedure: Buffy coats were obtained from healthy volunteers according to institutional guidelines and pDCs were purified by positive isolation using anti-BDCA-4-conjugated magnetic microbeads (Miltenyi Biotec) and cultured in X-VIVO-15 medium (Cambrex) supplemented with 2% of decomplemented human AB+ serum. pDCs purity was routinely up to 95%, as assessed by double staining BDCA-2/CD123 (Miltenyi Biotec) in a FACS.
# Subsequently, pDCs were incubated on ice for 15 minutes with either PBA, 5 μg/ml ODN-CpG C (M362, Axorra) in PBA or 5 μg/ml ODN-CpG C-3′-biotin in PBA (M362, Biosearch Technologies). Unbound ODN-CpG C was washed away three time with PBA and pDCs were cultured overnight (37° C., 5% CO2) in X-VIVO-15 medium (Cambrex), supplemented with 2% of decomplemented human AB+ serum. Supernatants were collected from pDC cultures after overnight stimulation, and IFNα production was analyzed with murine monoclonal capture and HRP-conjugated anti-IFNα antibodies (BenderMed systems) using standard ELISA procedures.
# [3] = system: pDCS in PBMC; assay: IL-6 and TNFα production after stimulation with CpG targeted to CD32 by aCD32a peptide (Example 10); type: cell-based, human; settings: CpG without targeting
# Procedure: Buffy coats were obtained from the Red Cross Austria. Cells were separated on ficoll hypack.
# Freshly isolated PBMC's were incubated with 200 μg/ml aCD32a peptide published by Berntzen et al (J. Biol. Chem. (2009) 284:1126-1135; sequence ADGAWAWVWLTETAVGAAK-biotin, SEQ ID NO:68) in PBA (PBS containing 5% BSA) on ice for 30 minutes and washed twice with PBA, followed by an incubation with 10 μg/ml streptavidin in PBA on ice for 30 minutes and two times washing with PBA. Subsequently, PBMC's were incubated on ice for 15 minutes with either PBA, 5 μg/ml ODN-CpG C (M362, Axorra) in PBA or 5 μg/ml ODN-CpG C-3′-biotin in PBA (M362, Girindus). Unbound ODN-CpG C was washed away three time with PBA and PBMCs were cultured overnight (37° C., 5% CO2) in X-VIVO-15 medium (Cambrex), supplemented with 2% of decomplemented human AB+ serum. Supernatants were collected from PBMC cultures after overnight stimulation, and […] was analyzed with murine monoclonal capture and HRP-conjugated anti-IL-6 or TNF^L antibodies (BenderMed systems) using standard ELISA procedures.
# [4] = system: mice; assay: IgG1 and IgG2a ELISA after s.c. immunization of mice with ScFV-1-coil or warhead; type: in vivo, mouse; settings: day 28, s.c. 2x 35 μg d0, d14
# Procedure: 24 mice (6/group) were immunized s.c. 2× with 35 μg in 150 μl ScFV-1-coil or with warhead (ScFV-1-coil-M362) either formulated on Alum or diluted in PBS. Immunizations were done on d0, and d14, sera were taken on d0 (before immunization) and d28 and analyzed for IgG1 and IgG2a against ScFV-1-coil (indicated as ScFV) and mAb IV.3 by standard ELISA.
# [5] = independent of the presence of Alum
molecule,measurement,setting,value
Concanavaline A [Con A],IL-4 after stimulation with Con A,[1],IL-4 was seen
"TCGTCGTCGTTCGAACGACGTTGAT (chemistry not fully specified) [CpG standard, CpG class C oligodeoxynucleotide, TLR9 agonist, used without targeting]",potency of IFNα induction compared to CpG targeted to CD32,[2],significantly less potent
same,IL-6 production: times less potent than CpG targeted to CD32,[3],~75 times
B1,IgG1 response to ScFV-1-coil,[4]; [5],strong
same,IgG1 response to mAb IV.3,[4]; [5],strong
same,IgG2 response to ScFV-1-coil,[4]; [5],strong
same,IgG2 response to mAb IV.3,[4]; [5],strong
B2,IgG2a response,[4]; on Alum or in PBS,no IgG2a response was induced
same,IgG1 response against ScFV-1-coil,[4]; only in the presence of Alum,induced an IgG1 response
